Values quoted from earlier work as cited in PMC5152572.
Where two headings read alike, the source gives them in different places.

Experiments:
[1] = target: IL-1 receptor (Homo sapiens) (UniProt P14778)
[2] = target: IL-1 receptor (Homo sapiens) (UniProt P14778); remark: listed apart in the source

Sequence of UniProt P14778 (P14778 18-569): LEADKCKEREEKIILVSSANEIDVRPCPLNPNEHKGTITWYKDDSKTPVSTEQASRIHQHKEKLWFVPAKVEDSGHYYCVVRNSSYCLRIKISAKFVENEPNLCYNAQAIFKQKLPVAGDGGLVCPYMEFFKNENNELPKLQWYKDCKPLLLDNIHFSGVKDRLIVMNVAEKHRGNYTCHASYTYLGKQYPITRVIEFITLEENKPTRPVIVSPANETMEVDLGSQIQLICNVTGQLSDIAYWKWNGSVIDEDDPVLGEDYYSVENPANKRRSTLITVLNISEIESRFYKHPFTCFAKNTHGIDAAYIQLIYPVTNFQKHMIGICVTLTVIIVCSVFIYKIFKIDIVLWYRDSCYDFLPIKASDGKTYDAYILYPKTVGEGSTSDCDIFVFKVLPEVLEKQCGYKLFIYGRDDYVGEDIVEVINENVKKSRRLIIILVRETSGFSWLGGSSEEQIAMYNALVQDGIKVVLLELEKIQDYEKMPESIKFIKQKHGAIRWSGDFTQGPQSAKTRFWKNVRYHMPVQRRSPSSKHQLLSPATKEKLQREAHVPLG

Row | Substance | Kd [1] | Kd [2]
1 | mature IL-1α mature (from UniProt P01583) | 4.5 nM | 
2 | pro-IL-1α (from UniProt P01583) |  | 4 nM
